No end group written: not given here.
What was measured:
[1] = target: T1, EphB4 (receptor of Table 1) (Mus musculus (Mouse), UniProt P54761 16-539); assay: inhibition of ephrin-B2 AP binding to EphB4 (panning receptor); biotinylated peptide
T1 sequence: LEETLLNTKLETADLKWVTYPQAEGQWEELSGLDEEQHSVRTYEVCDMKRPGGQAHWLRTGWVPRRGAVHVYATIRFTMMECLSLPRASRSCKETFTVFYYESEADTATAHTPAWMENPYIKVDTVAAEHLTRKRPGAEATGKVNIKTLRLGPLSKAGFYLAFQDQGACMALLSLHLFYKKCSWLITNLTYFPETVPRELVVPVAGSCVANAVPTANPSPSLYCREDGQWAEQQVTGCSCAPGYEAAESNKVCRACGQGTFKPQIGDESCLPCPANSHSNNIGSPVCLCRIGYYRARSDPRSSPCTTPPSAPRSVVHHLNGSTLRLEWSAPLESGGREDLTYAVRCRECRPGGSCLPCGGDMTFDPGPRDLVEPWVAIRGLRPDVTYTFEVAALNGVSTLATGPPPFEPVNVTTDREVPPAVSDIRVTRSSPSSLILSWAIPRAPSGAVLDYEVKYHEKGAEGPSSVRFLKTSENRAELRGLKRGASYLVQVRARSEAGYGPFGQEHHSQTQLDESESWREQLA

[2] = target: EphB1 (receptor of Table 1); assay: EphB receptor specificity panel (% binding)
[3] = target: T1, EphB4 (receptor of Table 1); assay: EphB receptor specificity panel (% binding)
[4] = target: EphB6 (receptor of Table 1); assay: EphB receptor specificity panel (% binding)
[5] = target: EphB2 (receptor of Table 1); assay: EphB receptor specificity panel (% binding)
[6] = target: EphB3 (receptor of Table 1); assay: EphB receptor specificity panel (% binding)
[7] = target: T1, EphB4 (receptor of Table 1); assay: inhibition of ephrin-B2 AP binding to EphB4 (panning receptor); limited by solubility
[8] = target: EphB1 (receptor of Table 1); assay: inhibition of ephrin-B2 AP binding to EphB1 (panning receptor); biotinylated and non-biotinylated peptide gave the same result
Target sequence in this assay (Q8CBF3 18-540): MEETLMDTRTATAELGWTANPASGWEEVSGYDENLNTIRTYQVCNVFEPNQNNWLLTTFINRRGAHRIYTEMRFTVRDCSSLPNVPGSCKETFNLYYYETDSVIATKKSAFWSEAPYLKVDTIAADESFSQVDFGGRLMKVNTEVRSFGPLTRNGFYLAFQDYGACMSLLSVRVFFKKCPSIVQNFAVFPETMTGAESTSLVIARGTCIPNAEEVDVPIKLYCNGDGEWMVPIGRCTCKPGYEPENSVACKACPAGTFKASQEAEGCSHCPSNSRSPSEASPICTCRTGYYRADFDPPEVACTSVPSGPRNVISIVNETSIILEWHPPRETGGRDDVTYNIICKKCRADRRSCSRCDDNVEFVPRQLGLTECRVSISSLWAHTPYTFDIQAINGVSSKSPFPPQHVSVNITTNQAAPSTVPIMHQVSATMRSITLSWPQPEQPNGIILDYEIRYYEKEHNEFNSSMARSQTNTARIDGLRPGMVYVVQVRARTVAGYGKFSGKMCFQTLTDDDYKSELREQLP

[9] = target: T1, EphB4 (receptor of Table 1); assay: inhibition of ephrin-B2 AP binding to EphB4 (panning receptor); non-biotinylated peptide
[10] = target: EphB2 (receptor of Table 1); assay: inhibition of ephrin-B2 AP binding to EphB2 (panning receptor); biotinylated and non-biotinylated peptide gave the same result
[11] = target: T2, murine EphB4-Alkaline Phosphatase (murine, UniProt P54761 16-539); assay: competition ELISA: murine EphB4-AP binding to immobilised murine ephrin-B2-Fc
T2 construct: also called EphB4-AP; EphB4 AP; not shown: alkaline phosphatase
T2 sequence (looked up): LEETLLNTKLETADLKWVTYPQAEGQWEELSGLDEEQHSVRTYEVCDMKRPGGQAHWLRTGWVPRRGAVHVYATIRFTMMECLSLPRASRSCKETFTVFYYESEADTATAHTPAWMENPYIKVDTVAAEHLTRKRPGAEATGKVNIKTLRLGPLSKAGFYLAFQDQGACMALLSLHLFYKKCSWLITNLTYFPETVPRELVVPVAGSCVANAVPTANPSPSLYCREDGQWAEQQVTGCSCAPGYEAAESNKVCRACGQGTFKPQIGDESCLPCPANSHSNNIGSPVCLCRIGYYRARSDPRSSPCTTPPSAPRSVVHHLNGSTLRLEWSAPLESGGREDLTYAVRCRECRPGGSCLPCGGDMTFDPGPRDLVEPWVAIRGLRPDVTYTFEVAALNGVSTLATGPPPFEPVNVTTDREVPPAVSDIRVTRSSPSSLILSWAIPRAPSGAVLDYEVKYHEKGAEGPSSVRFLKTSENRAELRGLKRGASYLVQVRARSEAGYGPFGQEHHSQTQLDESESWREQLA

murine EphB4 ectodomain = target: T3, murine EphB4 ectodomain (murine, UniProt P54761 16-539); assay: inhibition of murine ephrin-B2 AP binding to immobilised murine EphB4 ectodomain
T3 construct: extracellular domain; Coated on wells; also called immobilized EphB4 receptor ectodomain
T3 sequence (looked up): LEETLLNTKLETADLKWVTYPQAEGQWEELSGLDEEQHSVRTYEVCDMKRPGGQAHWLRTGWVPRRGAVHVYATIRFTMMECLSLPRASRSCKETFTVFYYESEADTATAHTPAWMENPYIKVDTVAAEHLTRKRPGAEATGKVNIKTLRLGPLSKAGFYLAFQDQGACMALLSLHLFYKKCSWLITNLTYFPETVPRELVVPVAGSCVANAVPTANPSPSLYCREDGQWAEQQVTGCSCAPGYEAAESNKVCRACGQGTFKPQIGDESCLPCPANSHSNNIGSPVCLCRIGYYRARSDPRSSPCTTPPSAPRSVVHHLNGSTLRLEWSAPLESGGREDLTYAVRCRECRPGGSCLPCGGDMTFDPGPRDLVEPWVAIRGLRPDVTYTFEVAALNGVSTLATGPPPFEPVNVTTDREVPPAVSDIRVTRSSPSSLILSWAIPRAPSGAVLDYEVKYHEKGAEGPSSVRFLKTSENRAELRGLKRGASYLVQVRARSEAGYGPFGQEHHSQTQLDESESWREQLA

[12] = target: EphB1 (receptor of Table 1); assay: inhibition of ephrin-B2 AP binding to EphB1 (panning receptor)
Target sequence in this assay (Q8CBF3 18-540): as the sequence (Q8CBF3 18-540) above

B1: biotinylated TNYLFSPNGPIA peptide (SEQ ID NO:24) (peptide)
peptide: TNYLFSPNGPIA
modifications: also: biotin, position not given here
notes: Footnote g: the ~50 µM value was obtained with the biotinylated peptide
IC50 [1]: ~50 µM

TYFDFQAWSIRA (Panned on EphB4) [TYFDFQAWSIRA peptide (SEQ ID NO:22)]
% Binding [2]: 10%
% Binding [3]: 100%
% Binding [4]: 30%
% Binding [5]: 21%
% Binding [6]: 18%
IC50 [7]: > 50 µM

B2: EWLSPNLAPSVR peptide (SEQ ID NO:1) (peptide)
peptide: EWLSPNLAPSVR
notes: Panned on EphB1; Footnote e: biotinylated and non-biotinylated peptides gave the same IC50
IC50 [8]: ~10 µM
% Binding [2]: 100%
% Binding [3]: 1%
% Binding [4]: 0%
% Binding [5]: 2%
% Binding [6]: 1%

TNYLFSPNGPIA (Panned on EphB4; non-biotinylated form) [TNYLFSPNGPIA peptide (SEQ ID NO:24)]
IC50 [9]: 150 µM
% Binding [2]: 5%
% Binding [3]: 100%
% Binding [4]: 7%
% Binding [5]: 3%
% Binding [6]: 3%

B3: SNEWIQPRLPQH peptide (SEQ ID NO:18) (peptide)
peptide: SNEWIQPRLPQH
notes: Panned on EphB2; Footnote e: biotinylated and non-biotinylated peptides gave the same IC50
IC50 [10]: ~15 µM

TNYLFSPNGPIARAW (Synthetic, not biotinylated) [TNYL-RAW peptide TNYLFSPNGPIARAW (SEQ ID NO:39)]
IC50 [11]: 0.016 µM
IC50 (murine EphB4 ectodomain): ~0.04 µM

AHTFPYPHPKPH (Panned on EphB1) [AHTFPYPHPKPH peptide (SEQ ID NO:3)]
IC50 [12]: ~150 µM
% Binding [2]: 100%
% Binding [3]: 1%
% Binding [4]: 0%
% Binding [5]: 4%
% Binding [6]: 8%

Reference: patent US20100150834A1 (BURNHAM INSTITUTE, published 2010)
